Measurements as given in paper PMC9890520.

Experiments:
[1] = biological target: human HER2.Fc (extracellular domain of HER2) (human) (UniProt P04626); experiment: SPR
[2] = biological target: human EGFR.Fc (extracellular domain of EGFR) (human) (UniProt P00533); experiment: SPR

| Kd [1] [nM] | koff [1] [s⁻¹] | kon [1] [M⁻¹ s⁻¹] | Kd [2] [nM] | koff [2] [s⁻¹] | kon [2] [M⁻¹ s⁻¹] | Substance |
| --- | --- | --- | --- | --- | --- | --- |
| 0.076 | 0.000111 | 1.45e+06 |  |  |  | Z_(HER2:342) (designed binder) |
| 0.0109 | 1.14e-07 | 10400 |  |  |  | Z_(HER2:342).BirA* (designed binder) |
|  |  |  | 7.06 | 0.000666 | 94300 | Z_(EGFR:1907) (designed binder) |
